Changes are numbered by the printed parent chain.
Tests used:
[1] = target: His-NinH R30A (bacteriophage λ) (UniProt P03771); test: AUC; sedimentation velocity, ~0.6 mg/ml protein, 4°C, 50 000 rpm, scans at 260 and 280 nm, SEDFIT
[2] = target: T1, His-NinH K35A (Bacteriophage lambda (cI857 Sam7), UniProt P03771 1-68, A15T;K35A); test: as above
T1 sequence: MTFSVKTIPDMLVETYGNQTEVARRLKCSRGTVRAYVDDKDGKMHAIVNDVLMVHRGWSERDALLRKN

[3] = target: T2, His-NinH S29A (Bacteriophage lambda (cI857 Sam7), UniProt P03771 1-68, A15T;S29A); test: as above
T2 sequence: T1 sequence with S29A, A35K

[4] = target: T3, His-NinH N18A (Bacteriophage lambda (cI857 Sam7), UniProt P03771 1-68, A15T;N18A); test: as above
T3 sequence: T1 sequence with N18A, A35K

[5] = target: T4, His-NinH T32A (Bacteriophage lambda (cI857 Sam7), UniProt P03771 1-68, A15T;T32A); test: as above
T4 sequence: T1 sequence with T32A, A35K

[6] = target: His-NinH S29A R30A (bacteriophage λ) (UniProt P03771); test: as above
[7] = target: T5, His-NinH R56A (Bacteriophage lambda (cI857 Sam7), UniProt P03771 1-68, A15T;R56A); test: as above
T5 sequence: T1 sequence with A35K, R56A

[8] = target: the molecule itself; test: SAXS; His-NinH in solution at 4 mg/ml, Xeuss 2.0 laboratory SAXS system
[9] = target: T6, His-NinH wt (Bacteriophage lambda (cI857 Sam7), UniProt P03771 1-68, A15T); test: fluorescence anisotropy; Hill 1.985; dimer concentration; MST: PBS pH 7.4 + 0.05% Tween-20, 22 C; anisotropy: 6.7 mM Tris-HCl pH 8.0, 3.3 nM (so in the source) sodium acetate, 2 mM EDTA, 25 C; EMSA (32P): 50 mM Tris-HCl pH 8.0, 5 mM EDTA, 1 mM DTT, 5% glycerol, 100 ug/ml BSA, on ice; EMSA (Cy520): PBS pH 7.4, room temp; settings: protein: recombinant; tags: N-His6; chain copies: 2; label: 3'-fluorescein (C6 linker) on strand 1; blunt
T6 sequence: T1 sequence with A35K

[10] = target: T7, NinH (native, untagged) (Bacteriophage lambda (cI857 Sam7), UniProt P03771 1-68, A15T); test: fluorescence anisotropy; Hill 2.23; dimer concentration; MST: PBS pH 7.4 + 0.05% Tween-20, 22 C; anisotropy: 6.7 mM Tris-HCl pH 8.0, 3.3 nM (so in the source) sodium acetate, 2 mM EDTA, 25 C; EMSA (32P): 50 mM Tris-HCl pH 8.0, 5 mM EDTA, 1 mM DTT, 5% glycerol, 100 ug/ml BSA, on ice; EMSA (Cy520): PBS pH 7.4, room temp; settings: protein: recombinant; tags: none; chain copies: 2; label: 3'-fluorescein (C6 linker) on strand 1; blunt
T7 sequence: T1 sequence with A35K

[11] = target: T6, His-NinH wt; test: EMSA; two complexes; MST: PBS pH 7.4 + 0.05% Tween-20, 22 C; anisotropy: 6.7 mM Tris-HCl pH 8.0, 3.3 nM (so in the source) sodium acetate, 2 mM EDTA, 25 C; EMSA (32P): 50 mM Tris-HCl pH 8.0, 5 mM EDTA, 1 mM DTT, 5% glycerol, 100 ug/ml BSA, on ice; EMSA (Cy520): PBS pH 7.4, room temp; settings: protein: recombinant; tags: N-His6; chain copies: 2; label: 5'-32P on strand 1; blunt
[12] = target: T6, His-NinH wt; test: EMSA; single complex; MST: PBS pH 7.4 + 0.05% Tween-20, 22 C; anisotropy: 6.7 mM Tris-HCl pH 8.0, 3.3 nM (so in the source) sodium acetate, 2 mM EDTA, 25 C; EMSA (32P): 50 mM Tris-HCl pH 8.0, 5 mM EDTA, 1 mM DTT, 5% glycerol, 100 ug/ml BSA, on ice; EMSA (Cy520): PBS pH 7.4, room temp; settings: protein: recombinant; tags: N-His6; chain copies: 2; label: 5'-32P on strand 1; fork 1:2, 31 bp duplex
[13] = target: T7, NinH (native, untagged); test: EMSA; two complexes; MST: PBS pH 7.4 + 0.05% Tween-20, 22 C; anisotropy: 6.7 mM Tris-HCl pH 8.0, 3.3 nM (so in the source) sodium acetate, 2 mM EDTA, 25 C; EMSA (32P): 50 mM Tris-HCl pH 8.0, 5 mM EDTA, 1 mM DTT, 5% glycerol, 100 ug/ml BSA, on ice; EMSA (Cy520): PBS pH 7.4, room temp; settings: protein: recombinant; tags: none; chain copies: 2; label: 5'-32P on strand 1; blunt
[14] = target: T7, NinH (native, untagged); test: EMSA; affinity similar to DS60, more second complex; MST: PBS pH 7.4 + 0.05% Tween-20, 22 C; anisotropy: 6.7 mM Tris-HCl pH 8.0, 3.3 nM (so in the source) sodium acetate, 2 mM EDTA, 25 C; EMSA (32P): 50 mM Tris-HCl pH 8.0, 5 mM EDTA, 1 mM DTT, 5% glycerol, 100 ug/ml BSA, on ice; EMSA (Cy520): PBS pH 7.4, room temp; settings: protein: recombinant, tags: none, chain copies: 2, label: 5'-32P on strand 1
[15] = target: T7, NinH (native, untagged); test: EMSA; similar to DS60; MST: PBS pH 7.4 + 0.05% Tween-20, 22 C; anisotropy: 6.7 mM Tris-HCl pH 8.0, 3.3 nM (so in the source) sodium acetate, 2 mM EDTA, 25 C; EMSA (32P): 50 mM Tris-HCl pH 8.0, 5 mM EDTA, 1 mM DTT, 5% glycerol, 100 ug/ml BSA, on ice; EMSA (Cy520): PBS pH 7.4, room temp; settings: protein: recombinant, tags: none, chain copies: 2, label: 5'-32P on strand 1

Molecule “His-NinH R30A (from UniProt P03771 1-68) (natural protein)” has a stoichiometry N [1] of 2.

“His-NinH K35A (from UniProt P03771 1-68) (natural protein)” showed a stoichiometry N [2] of 2.

In the case of “His-NinH S29A (from UniProt P03771 1-68) (natural protein)”, the stoichiometry N [3] is reported as 2.

“His-NinH N18A (from UniProt P03771 1-68) (natural protein)” showed a stoichiometry N [4] of 2.

“His-NinH T32A (from UniProt P03771 1-68) (natural protein)” was tested, and the stoichiometry N [5] was 2.

Molecule “His-NinH S29A R30A (from UniProt P03771 1-68) (natural protein)” has a stoichiometry N [6] of 2.

Molecule “His-NinH R56A (from UniProt P03771 1-68) (natural protein)” has a stoichiometry N [7] of 2.

B1: N-His6-NinH (bacteriophage λ NinH, wild type) (natural protein)
chain: T1 sequence with T15A, A35K
In the case of B1, the “stoichiometry N” value [8] is reported as 2.

B2: DS20 (o-FLU20/o-SS20) (dsDNA)
DNA 1: TGGGTCAACGTGGGCAAAGA
DNA 2: TCTTTGCCCACGTTGACCCA
For B2, the Kd [9] was 43 nM and the Kd [10] was about 57 nM.

B3: DS50 (dsDNA)
DNA 1: GGCGACGTGATCACCAGATGATTGCTAGGCATGCTTTCCGCAAGAGAAGC
DNA 2: GCTTCTCTTGCGGAAAGCATGCCTAGCAATCATCTGGTGATCACGTCGCC
B3: binds [11].

B4: Forked duplex FD (structured_DNA)
DNA 1: B3 DNA 1
DNA 2: GGCTTCTCTTGCGGAAAGCATGCCTAGCAATCCTGTCAGCTGCATGGAAC
B4: binds [12].

B5: DS60 (dsDNA)
DNA 1: TTTGGTCTAACTTTACCGCTACTAAATGCCGCGGATTGGTTTCGCTGAATCAGGTTATTA
DNA 2: TAATAACCTGATTCAGCGAAACCAATCCGCGGCATTTAGTAGCGGTAAAGTTAGACCAAA
B5: binds [13].

B6: BT3 (dsDNA)
DNA 1: B5 DNA 1
DNA 2: TAATAACCTGATTCAGCGAAACCAATCCAAAGCGGCATTTAGTAGCGGTAAAGTTAGACCAAA
B6: binds ([14]; 3 extra A bulge in strand 2).

B7: BB5 (dsDNA)
DNA 1: B5 DNA 1
DNA 2: B5 DNA 2 with C28G, G29C, C30A, G31A, G32C
B7: binds ([15]; central 5 nt bubble).

B8: BB20 (dsDNA)
DNA 1: B5 DNA 1
DNA 2: TAATAACCTGATTCAGCGAATGACCGATAACGTCCACTTGAGCGGTAAAGTTAGACCAAA
B8: binds ([15]; central 20 nt bubble).

B9: BB1 (dsDNA)
DNA 1: B5 DNA 1
DNA 2: B5 DNA 2 with C28G
B9: binds ([15]; central 1 nt mismatch).

B10: BT1 (dsDNA)
DNA 1: B5 DNA 1
DNA 2: TAATAACCTGATTCAGCGAAACCAATCCAGCGGCATTTAGTAGCGGTAAAGTTAGACCAAA
B10: binds ([14]; 1 extra A bulge in strand 2).

B11: BT2 (dsDNA)
DNA 1: B5 DNA 1
DNA 2: TAATAACCTGATTCAGCGAAACCAATCCAAGCGGCATTTAGTAGCGGTAAAGTTAGACCAAA
B11: binds ([14]; 2 extra A bulge in strand 2).

B12: BB13 (dsDNA)
DNA 1: B5 DNA 1
DNA 2: TAATAACCTGATTCAGCGAAACATTGTAGGTAAGCTTAGTAGCGGTAAAGTTAGACCAAA
B12: binds ([15]; central 13 nt bubble).

Reference: article PMC7166090, “A bacteriophage mimic of the bacterial nucleoid-associated protein Fis” (Biochemical Journal, 2020)
